Data on 41 sequences can be found in the nanobody polyreactivity screen of Harvey et al. (2022).

The nature of this data set: yeast display, Sf9 membrane polyspecificity reagent, FACS + sequencing; frameworks hold sequencing errors. In short, it runs like this:
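Nanobodies came from a synthetic yeast display library in Saccharomyces cerevisiae BJ5465, induced with galactose for 36–48 hours and stained for 1 hour at 4 °C with 10% biotinylated, detergent-solubilized Sf9 membrane reagent. Cells were enriched on streptavidin microbeads and then FACS-sorted, with low and high (top ~1%) gates set on anti-HA fluorescence for expression and streptavidin fluorescence for reagent binding. Each polyreactivity label reflects the gate a clone came from. Genes were amplified by colony PCR, sequenced by MiSeq 2 × 250 and filtered by CDR length.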
“QVQLVESGGGLVQAGGSLRLSCAASGRTLRYNAMGWDRQAPGKERELVAAISTRGTNTYYADSVKGRFTISRDNAKNTVYLQMNSLKPEDTAVYYCAAKKGGYPYSVYSGTRHNYWGQGTQVTVSS”: the “polyreactivity (PSR sort gate)” value is given as “high polyreactivity”.

For “QVQLVESGGGLVQAGGSLRLSCAASGRTLSRYTMGWYIQAPGKERELVAGITRSGGSTYYPDSEKGRFTISRDNAKNTVYLQMNSLKPEDTAVYYCAARWHFLTSSRFDYWGQGTQVTVSS”, the “polyreactivity (PSR sort gate)” value was “high polyreactivity”.

As for “QVQLVESGGGLVQAGGSLRLSCAASGRTLSWYAMGWYRQAPGKEWEFVAAITSSGASTYYADSVKGRFTISRDNANNTVYLQMNSLKPEDTAVYYCNAAWRRVWFNYCGQGTQVTVSS”, the “polyreactivity (PSR sort gate)” value is “high polyreactivity”.

For “QVQLVESGGGLVQAGGSLRLSCAASGRTLTGYAMGWYRQAPGKERELVAAITWRDSTYYADSVKGRFTISRDNAKNSVYLQMNSLKPEDTAVYYCNADNATYFVYEFNYWGQGTQVTVSS”, the “polyreactivity (PSR sort gate)” value is given as “low polyreactivity”.

Consider “QVQLVESGGGLVQAGGSLRLSCAASGRTLTYNVMGWYRPAPGKERELVASISATGGSTYYADSVKGRFTISRDNAKNTVYLQMNSLKPEDTAVYSCAARGYRYHYATRYDYWGQATQVTVSS”, for which the “polyreactivity (PSR sort gate)” value is given as “high polyreactivity”.

As for “QVQLVESGGGLVQAGGSLRLSCAASGRTLVHYAMGWYRQAPGKERELVAAISYSGGRTYYADSVKGRFTISRDNAKNTVYLQMNSLKPEDTAVYYCAAEIVYPAIGGYGYWGQGTQVTVSS”, the “polyreactivity (PSR sort gate)” value is reported as “low polyreactivity”.

“QVQLVESGGGLVQAGGSLRLSCAASGRTLVLNMGWYRPAPGKERELVATINSGGSTYYADSVKGRFTISRDNAKNTVYLQMNSLKPEDTAVYYCAVLSSDGKFDYWGQGTQVTVSS”: the “polyreactivity (PSR sort gate)” value was “low polyreactivity”.

With “QVQLVESGGGLVQAGGSLRLSCAASGRTLVYYAMGSYRQSPGKERELVAAISWSGSRTYYADSVKGRFTISRDNAKNTVYLQMNSLKPEDTAVYYCATLTFRTNGTMDYWGQGTQVTVSS”, the “polyreactivity (PSR sort gate)” value is recorded as “high polyreactivity”.

With “QVQLVESGGGLVQAGGSLRLSCAASGRTLWGNAMGWYRQAPGKERELVAAISRSGYTNYADSVKGRFTISRDNAKNTVYLLMNRLKPEDTAVYYCNARSTRSRTYQSYDYWGQGTQVTVSS”, the “polyreactivity (PSR sort gate)” value is given as “high polyreactivity”.

As for “QVQLVESGGGLVQAGGSLRLSCAASGRTLWYYTMGWYRQAPGKERELVADITRGTSTNYADSVKGRFTISRDNAKNTVYLQMNSLKPEDTAVYHCNRAHGRSRYSRDYDSWGQGTQVTVSS”, the “polyreactivity (PSR sort gate)” value is listed as “low polyreactivity”.

With “QVQLVESGGGLVQAGGSLRLSCAASGRTLYFNAMGWYRQAPGKERALVADISIGGSTYSADSVKGRFTISRDNAKNTVYLQMNSLKPEDSAVYYCAANAHYYVSYAWSVDVDYWGQGTQVTVSS”, the “polyreactivity (PSR sort gate)” value is given as “high polyreactivity”.

Take “QVQLVESGGGLVQAGGSLRLSCAASGRTLYGYAMGWYRQAPGKERELVAAISKRGTRTYHADSVKGRFTISRDNAKNTVYLQMNSLKPEDTAVYFCGARYPPDEATMEYWGQGTQVTVSS”: the “polyreactivity (PSR sort gate)” value was “high polyreactivity”.

For the sequence “QVQLVESGGGLVQAGGSLRLSCAASGRTLYLNAMGWYRQAPGKERELVASISRGGGSTYYADSVKGRFTISRDNAKYTVYLQMNSLKPEDTAVYYCAATGAGDYDYWGQGTQVTVSS”, the “polyreactivity (PSR sort gate)” value is on record as “low polyreactivity”.

As to “QVQLVESGGGLVQAGGSLRLSCAASGRTLYNYAMGWYRQAPGKERELVAAISSSGSTNYADSVKVRFTISRDNAKNTVYLQMNSLKPEDTAVYYCAKGYPWRYSIMDYWGQGTQVTVSS”, the “polyreactivity (PSR sort gate)” value is given as “low polyreactivity”.

As for “QVQLVESGGGLVQAGGSLRLSCAASGRTLYYYAMGWYRQAPGKERELVARISSRGGSTYYADSVKGRFTISRDNAKNTVYLQMNSLKPEDTAVYYCAADGPGTSEDDYWGQGTQVTVSS”, the “polyreactivity (PSR sort gate)” value is given as “high polyreactivity”.

As for “QVQLVESGGGLVQAGGSLRLSCAASGRTMGYNTMGWYRQAPGKERELVARISYGGSTYYAESVKGRFTISRDNAKNTVYLQMNSLIPEDTAVYYCAAEARSYRYPYNYWGQGTQVTVSS”, the “polyreactivity (PSR sort gate)” value was “high polyreactivity”.

In the case of “QVQLVESGGGLVQAGGSLRLSCAASGRTSAWYAMGWYRQAPGKERDLVATISYTGGRTYYADSVKGRFTISRDNAKNTVYLQMNSLKPEDTAVYYCAKRYTSWFSSKFDYWGQGTQVTVSS”, the “polyreactivity (PSR sort gate)” value is “high polyreactivity”.

On to “QVQLVESGGGLVQAGGSLRLSCAASGRTSEIYTMGWYRPAPGKERELVASINTNYADSVKGGFTNSRDNAKNTVYLQMNCLKPEDTAVYYCNADDTIEFNYWGQGTQVTVSW”, for which the “polyreactivity (PSR sort gate)” value was “low polyreactivity”.

For “QVQLVESGGGLVQAGGSLRLSCAASGRTSGGYAMGWYRQAPGKERELVATITQSGGRTYYADSVKGRFTISRDNAKNTVYLQMNSLKPEDTAVYYCAAQYGRTYYSRREYWGQGTQVTVSS”, the “polyreactivity (PSR sort gate)” value was “high polyreactivity”.

For the sequence “QVQLVESGGGLVQAGGSLRLSCAASGRTSGRYAMGWYRQAPGKERELVAGITSSGGSTYYADSVKGRFTISRDNAKNSVYLQMNSLKPEDTAVYYCAKVWGAKGKTYRMYSWGQGTQVTVSS”, the “polyreactivity (PSR sort gate)” value is “high polyreactivity”.

“QVQLVESGGGLVQAGGSLRLSCAASGRTSIGNAMGWYRQAPGKERELVASISWSGGSTYYADSVKGRFTISRDNAKNTVYLQMNSLKPEDTAVYYCAKTAYFLVFNEHLHKKRYDSWGLGTQVTVSS”: the “polyreactivity (PSR sort gate)” value is listed as “low polyreactivity”.

Consider “QVQLVESGGGLVQAGGSLRLSCAASGRTSVINAMGWYRQATGKERELVAAITKRGGSTYYADSVKGRFTISRDNAKNTVYLQMNSLKPEDTAVYYCAKYAISIQYDSWGQGTQVTVSS”, for which the “polyreactivity (PSR sort gate)” value was “high polyreactivity”.

“QVQLVESGGGLVQAGGSLRLSCAASGRTSVIYAMGWYGPAPGKERELVASIRRGCSTSYADSVKGRFTISRDNAKNTVYLQMNSLKPEDTAVFYCAALLYGYYHVWRNYYWGQGTQVTVSS”: the “polyreactivity (PSR sort gate)” value is “high polyreactivity”.

As to “QVQLVESGGGLVQAGGSLRLSCAASGRTSVLYAMGWSRQAPGKEREFVAAITWNSGSTYYADSVKGRFTISRDNAKNTVYLQMISLKPEDTAVYYCNADYYFTSYRSTYDYWGQGTHVTVSS”, the “polyreactivity (PSR sort gate)” value was “low polyreactivity”.

Regarding “QVQLVESGGGLVQAGGSLRLSCAASGRTSVRYAMGWYRQAPGKERELVAAISWSGGSTYYADSVKGRFTISRDNAKNTDYLQMNSLKAEDTAVYYCNAQHARGYYYWGQGTQVTVSS”, the “polyreactivity (PSR sort gate)” value is on record as “low polyreactivity”.

Turning to “QVQLVESGGGLVQAGGSLRLSCAASGRTSWRYAMGWYRQAPGKERELVAAINRGGSTYYADSVMGRFTISRDNAKNTVYLQMNSLKPEDTAVYYFAVDTPLVYYHQQAYVAGEYWGQGTQVTVSS”, the “polyreactivity (PSR sort gate)” value was “low polyreactivity”.

On to “QVQLVESGGGLVQAGGSLRLSCAASGRTSWYYAMGWYRQAPGKERELVAAISVRAGSTYYADSVKGRFTISRDNAKNTVYLQMNSLKPEDTAVYYCAREYSPYTSRRDYWGQGTQVTVSS”, for which the “polyreactivity (PSR sort gate)” value is given as “high polyreactivity”.

As for “QVQLVESGGGLVQAGGSLRLSCAASGRTSYVYAMGWYRQAPGKERELVATISFRGGSTYYADSVKGRFTISRDNAKNTVYLQMNSLKPEDTAVYYCAATTPYYTPRRRNEYWGQGTQVTVSS”, the “polyreactivity (PSR sort gate)” value is on record as “high polyreactivity”.

“QVQLVESGGGLVQAGGSLRLSCAASGRTTYWYAMGWYRQAPGKERELLADISWSGGSTYYADSVKGRFTISRDNAKNTVYIQMNSLKPEDTAVYYCNAAEQKYSIYYAFDTGPYDYWGQGTQVTVSS”: the “polyreactivity (PSR sort gate)” value was “low polyreactivity”.

On to “QVQLVESGGGLVQAGGSLRLSCAASGRTVGYYGMGWYRQAPGKERELVAAITGSGGSTYYADSVKGRFTISRDNAKNTVYLQMNSLKPEDTAVYYCAATYLSRWTLYDYWGQGTQVTVSS”, for which the “polyreactivity (PSR sort gate)” value is reported as “high polyreactivity”.

Regarding “QVQLVESGGGLVQAGGSLRLSCAASGRTVSGYSMGWYIQAPGKERELVARITSGYSTNYADSVKWRFTISRDNAKNTVYLQMNCMKPEDTAVYYCAADRVWAFWTYGYWGQGTQVTVSS”, the “polyreactivity (PSR sort gate)” value was “low polyreactivity”.

“QVQLVESGGGLVQAGGSLRLSCAASGRTVWDSAMGWYRQAPGNERELVAAIASNTGSTYYADSVKGRFTISRDNAKNTVYLQLNSLKPEDTAVYYCNVEYYYDFNFNYDDYEFDYWGQGTHVTVSS”: the “polyreactivity (PSR sort gate)” value is reported as “high polyreactivity”.

“QVQLVESGGGLVQAGGSLRLSCAASGRTVYKNTMGWYRQAPGKERELVAAISIRGGSTYYADSVKGRFTISRDNAKNTVYLQMNSLKPEDTAVYYCNVVYQKAARIVDFDYWGQGTQVTVSS”: the “polyreactivity (PSR sort gate)” value is reported as “high polyreactivity”.

“QVQLVESGGGLVQAGGSLRLSCAASGRTVYVYYMGWYRQAPGKERELVAAISTNYADSVKGRCTISRDNAKNTVYFQMNSLIPEDTAVYYCAADDIHYVIHAYYSTGVDYWGQGTQVTVSS”: the “polyreactivity (PSR sort gate)” value is given as “low polyreactivity”.

Turning to “QVQLVESGGGLVQAGGSLRLSCAASGRTYFTNAMGWYRQAPGKERELVAAITGSGGSTSYADSVKVRFTISRDNAKNTVYLQMNSLKPEDTAVYYCAAEWQELEYVYWGQGTQVTVSS”, the “polyreactivity (PSR sort gate)” value was “low polyreactivity”.

As for “QVQLVESGGGLVQAGGSLRLSCAASGRTYGIYAMGWYRQAPGKEREFVAAISWSSGGSTYYADSVKGRFTISRDNAKNTVYFQMISLKPEDTAVYYCNVDTIYNLESDYWGQGTQVTVSS”, the “polyreactivity (PSR sort gate)” value is on record as “low polyreactivity”.

Take “QVQLVESGGGLVQAGGSLRLSCAASGRTYRFNAMGWYRQAPGKERELVAAISKSGGSTYYADSVKGRFTISRDNAKNTVYLQMNSLKPEDTAVYYCAAQTYLYEYKYWGQGTQVTVSS”: the “polyreactivity (PSR sort gate)” value is “high polyreactivity”.

Turning to “QVQLVESGGGLVQAGGSLRLSCAASGRTYRTYAMGWYRQAPGKEREFVAAITSSGGSTYYADSVKGRFTISRDNAKNTVDLEMNSLKPEDTAVYSCNAKRRYGPDKYDYWGQGTQVTVSS”, the “polyreactivity (PSR sort gate)” value is “high polyreactivity”.

Consider “QVQLVESGGGLVQAGGSLRLSCAASGRTYRWYVMGWYIQAPGTERELVAAISQSGGSTYYADSVKGRFTISRDNAMNTVYLEMYSLKPEDTAVYYCNAYPRYGGYAYGRGDYWGQGTQVTVSS”, for which the “polyreactivity (PSR sort gate)” value is listed as “high polyreactivity”.

In the case of “QVQLVESGGGLVQAGGSLRLSCAASGRTYRYNAMGWYRQAPGKERELVATITRTGSTDYADSVKGRFTISRDNAKNTVYLQMNSLKPEDTAVYYCNARGVYSGRTYYYIYDYWGQGTQVTVSS”, the “polyreactivity (PSR sort gate)” value is “high polyreactivity”.

In the case of “QVQLVESGGGLVQAGGSLRLSCAASGRTYSYNAMGWYRQEPGKERELVAGITYTGGRTYYADSVKGRFTISRDNAKNTVYLQMNSLKPEDTAVYYCAVGEYGHWLYRYEYWGQGTQVTVSS”, the “polyreactivity (PSR sort gate)” value was “high polyreactivity”.
